Consider 1 protein from article PMC8395244, “The Oxoglutarate Binding Site and Regulatory Mechanism Are Conserved in Ammonium Transporter Inhibitors GlnKs from Methanococcales” (International Journal of Molecular Sciences, 2021).

This data set deals with the molecule itself. Briefly: crystal structure; sitting drop at 18 °C; crystallised with or without 2 mM ATP, 2 mM 2OG and 2 mM MgCl2; solved by molecular replacement with PDB 2J9D.

B1: GlnK1 from Methanocaldococcus jannaschii without a C-terminal tag (MjGlnK1^woT) (natural protein)
chain: MKKVEAIIRPEKLEIVKKALSDAGYVGMTVSEVKGRGVQGGIVERYRGREYIVDLIPKVKIELVVKEEDVDNVIDIICENARTGNPGDGKIFVIPVERVVRVRTKEEGKEAL
notes: GlnK1, PII-family protein, of Methanocaldococcus jannaschii strain DSM 2661; codon-optimised synthetic gene cloned NdeI/XhoI in pET-24b(+) with a stop codon upstream of the XhoI site, so without a tag; Produced and crystallised without a tag; the crystals came from the gel filtration pool that eluted at 66 mL; also called MjGlnK1^woT-Mg-ATP/2OG; MjGlnK1 with ATP, Mg and 2OG; source: E. coli …
As usually defined, the stoichiometry N is a count of units in the complex or per binding partner. As to B1, the “stoichiometry N” value was determined as 3.
